Measured values from paper PMC8882189, “Identification of Nanog as a novel inhibitor of Rad51” (Cell Death & Disease, 2022).

Target: T1, His-tagged Rad51 (mouse, UniProt Q08297 1-339)
T1 construct: Rad51, mouse; The bacterial expression construct is not described; source: bacterially expressed, purified (Ni superflow beads)
T1 sequence (looked up): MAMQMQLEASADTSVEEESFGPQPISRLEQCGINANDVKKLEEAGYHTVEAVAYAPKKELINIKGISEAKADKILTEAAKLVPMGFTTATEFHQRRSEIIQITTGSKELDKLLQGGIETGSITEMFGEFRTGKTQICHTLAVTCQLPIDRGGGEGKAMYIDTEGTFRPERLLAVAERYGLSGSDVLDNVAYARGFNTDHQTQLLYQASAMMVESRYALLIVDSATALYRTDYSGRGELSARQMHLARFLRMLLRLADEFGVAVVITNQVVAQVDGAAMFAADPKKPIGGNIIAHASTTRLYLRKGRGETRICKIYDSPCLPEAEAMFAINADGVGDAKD
Test: pull-down; purified GST-tagged Nanog or fragments on glutathione-sepharose beads, incubated with purified His-tagged Rad51 at 4 °C overnight; washed 4 times with lysis buffer; western blot with anti-Rad51
Conditions: both partners purified

B1: GST-tagged Nanog (natural protein, mouse, UniProt Q80Z64 1-305, looked up)
chain: MSVGLPGPHSLPSSEEASNSGNASSMPAVFHPENYSCLQGSATEMLCTEAASPRPSSEDLPLQGSPDSSTSPKQKLSSPEADKGPEEEENKVLARKQKMRTVFSQAQLCALKDRFQKQKYLSLQQMQELSSILNLSYKQVKTWFQNQRMKCKRWQKNQWLKTSNGLIQKGSAPVEYPSIHCSYPQGYLVNASGSLSMWGSQTWTNPTWSSQTWTNPTWNNQTWTNPTWSSQAWTAQSWNGQPWNAAPLHNFGEDFLQPYVQLQQNFSASDLEVNLEATRESHAHFSTPQALELFLNYSVTPPGEI
notes: Nanog, mouse; The bacterial expression construct is not described; also called full-length Nanog; FL; source: E. coli BL21, purified (Glutathione-Sepharose)
binding result: binds
